This is an account of results in paper PMC6486907.

The target of test [1] is Sau-TBD (large fragment of Staphylococcus aureus Pol I with the thioredoxin-binding domain of bacteriophage T7 DNA polymerase inserted) (Staphylococcus aureus | bacteriophage T7).
Test [2] has the same target. This is another data set of the same source.

In the case of “thioredoxin from E. coli (TrxA) (from UniProt P0AA25 2-109) (natural protein)”, the DNA polymerase activity of Sau-TBD on primed M13mp18 DNA with 1.5 uM thioredoxin (1316 units/mg protein without thioredoxin) (units/mg protein) in test [1] is 2860. In test [2], this substance returned an average primer extension length of Sau-TBD with thioredoxin, as told in the text (differs from Table 3) of 74.2 nt and a microscopic processivity (PI) of Sau-TBD with thioredoxin, as told in the text (differs from Table 3) of 0.986.
